Data on 5 molecules can be found in publication PMC7191749, “Low phosphatase activity of LiaS and strong LiaR-DNA affinity explain the unusual LiaS to LiaR in vivo stoichiometry” (BMC Microbiology, 2020).

In data set [1] the target is T1, LiaS (GST-LiaS, liaS^126) (Bacillus subtilis, UniProt O32198).
T1 construct: cytoplasmic domain, residues 126-360 (TM and HAMP removed), fused to C-terminus of GST; pGEX-4T-1, E. coli BL21(DE3); calculated mass 52,431 (printed as kD)
Briefly: autophosphorylation, […] incorporation by SDS-PAGE phosphorimaging, kobs against ATP. The data set is classed as biochemical. Particulars: labelled compound; pH 7.4, 50 mM KCl, 5 mM MgCl2, 10 mM CaCl2, 25 °C; 5 μM LiaS; 10-250 μM ATP; apparent dissociation constant from kinetics; read-out: KS.

Data set [2] concerns LiaRC (effector domain) (Bacillus subtilis 168). The experiment in a line: EMSA. Particulars: 5 mM Mg2+; EMSA: 10 mM Tris pH 7.5, 50 mM KCl, 1 mM DTT, 5 mM MgCl2, 10 ng herring sperm DNA, 2.5% glycerol, 25 C, 30 min, 9% native PAGE; footprinting as in ref 35. (Mobility shift assays separate free from complexed probe on a gel.)
Data set [3] concerns LiaR (Bacillus subtilis 168). Briefly: EMSA. The settings on record: 5 mM Mg2+; unphosphorylated; EMSA: 10 mM Tris pH 7.5, 50 mM KCl, 1 mM DTT, 5 mM MgCl2, 10 ng herring sperm DNA, 2.5% glycerol, 25 C, 30 min, 9% native PAGE; footprinting as in ref 35.
In data set [4] the target is T2, VraR (Staphylococcus aureus) (UniProt Q7A2Q1).
T2 sequence: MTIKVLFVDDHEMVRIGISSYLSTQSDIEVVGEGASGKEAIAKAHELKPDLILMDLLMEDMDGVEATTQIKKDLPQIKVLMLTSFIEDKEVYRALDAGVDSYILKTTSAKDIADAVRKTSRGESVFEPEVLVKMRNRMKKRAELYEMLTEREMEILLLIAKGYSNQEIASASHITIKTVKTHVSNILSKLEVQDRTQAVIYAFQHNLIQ
The experiment in a line: DNase I footprinting. The settings on record: EMSA: 10 mM Tris pH 7.5, 50 mM KCl, 1 mM DTT, 5 mM MgCl2, 10 ng herring sperm DNA, 2.5% glycerol, 25 C, 30 min, 9% native PAGE; footprinting as in ref 35.

Data set [5] has as its target T3, LiaR (Bacillus subtilis 168) (UniProt O32197).
T3 sequence: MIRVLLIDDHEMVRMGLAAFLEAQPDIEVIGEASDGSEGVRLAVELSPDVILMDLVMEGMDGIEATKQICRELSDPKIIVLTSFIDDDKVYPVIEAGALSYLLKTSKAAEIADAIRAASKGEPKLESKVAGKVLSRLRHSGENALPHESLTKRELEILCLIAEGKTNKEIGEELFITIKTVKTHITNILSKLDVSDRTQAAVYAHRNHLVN
Briefly: DNase I footprinting. The settings on record: EMSA: 10 mM Tris pH 7.5, 50 mM KCl, 1 mM DTT, 5 mM MgCl2, 10 ng herring sperm DNA, 2.5% glycerol, 25 C, 30 min, 9% native PAGE; footprinting as in ref 35.

The target of data set [6] is T3, LiaR (Bacillus subtilis 168). Briefly: EMSA. The settings on record: EMSA: 10 mM Tris pH 7.5, 50 mM KCl, 1 mM DTT, 5 mM MgCl2, 10 ng herring sperm DNA, 2.5% glycerol, 25 C, 30 min, 9% native PAGE; footprinting as in ref 35.
Data set [7] concerns the target T4, LiaRC (effector domain) (Bacillus subtilis 168) (UniProt O32197).
T4 sequence: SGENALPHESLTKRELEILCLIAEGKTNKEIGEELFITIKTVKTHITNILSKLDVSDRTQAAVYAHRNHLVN
Briefly: EMSA. Particulars: EMSA: 10 mM Tris pH 7.5, 50 mM KCl, 1 mM DTT, 5 mM MgCl2, 10 ng herring sperm DNA, 2.5% glycerol, 25 C, 30 min, 9% native PAGE; footprinting as in ref 35.

Data set [8] addresses T5, LiaR^N (RD of LiaR) (Bacillus subtilis, UniProt O32197).
T5 construct: receiver domain, tagless, Gly-131 codon changed to stop (residues 1-130); pET26b, E. coli BL21(DE3); calculated mass 14,029 (printed as kD)
Briefly: phosphorylation by acetyl phosphate. In kind it is biochemical. Particulars: covalent phosphorylation of the stand-alone receiver domain.

Data set [9] concerns the molecule itself. The experiment in a line: native-PAGE.

T1 sequence (O32198 126-360): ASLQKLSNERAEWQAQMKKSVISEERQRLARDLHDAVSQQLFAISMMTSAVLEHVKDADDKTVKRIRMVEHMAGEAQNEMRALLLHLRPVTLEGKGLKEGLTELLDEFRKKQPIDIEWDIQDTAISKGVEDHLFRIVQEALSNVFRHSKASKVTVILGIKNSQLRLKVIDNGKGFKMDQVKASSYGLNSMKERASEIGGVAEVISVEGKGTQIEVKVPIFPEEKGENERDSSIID

Regarding `Nc1ncnc2c1ncn2[C@@H]1O[C@H](COP(=O)(O)OP(=O)(O)OP(=O)(O)O)[C@@H](O)[C@H]1O` [ATP], the Kd in data set [1] was 7 ± 1 µM. As for PliaI (-162 to +31), the values for the Kd in data set [2] and in data set [3] were 20 µM and 0.2 µM, respectively. “TTCATGCAGATCCTCCTTTCGTTTTCCTTGTCTTCATCTTATACAAGTTGGAAGATATGCAAAACGAATCAGAGATTGATTTTTATATAAGACCGGAGTCGTATCTCGCACCGGACCCATTGGCACAAAAAAACGCCATGCACGAGGCATGGCGTTTTAAAACCCTTTACAGATGAACACTTGCTTCCCTTTC (double strand) [PliaI (-162 to +31)]”: the binding result in [4] and in data set [5] was “binds” in each case. Besides, the Kd came to 0.2 µM in data set [6] and 20 µM in [7]. Regarding `CC(=O)OP(=O)(O)O` [acetyl phosphate], the “phosphorylation by acetyl phosphate” value in data set [8] is “RD of LiaR also underwent phosphorylation by acetyl phosphate”.

B1: LiaR 1-211 (protein)
chain: MIRVLLIDDHEMVRMGLAAFLEAQPDIEVIGEASDGSEGVRLAVELSPDVILMDLVMEGMDGIEATKQICRELSDPKIIVLTSFIDDDKVYPVIEAGALSYLLKTSKAAEIADAIRAASKGEPKLESKVAGKVLSRLRHSGENALPHESLTKRELEILCLIAEGKTNKEIGEELFITIKTVKTHITNILSKLDVSDRTQAAVYAHRNHLVN
B1: in data set [9], the Kd is greater than 20 µM.
